Data as given in US20260116958A1 (University of California, published 2026).
Read-outs that look alike come from different tables or passages of the source.

Tests used:
[1] = molecular target: inactive BoNT/G (BoNT/Gi) (Clostridium botulinum) (UniProt Q60393); experiment: titration on yeast-displayed scFv, flow cytometry, fit y = m1 + m2*M0/(m0+m3)
[2] = molecular target: T1, inactive BoNT/G (BoNT/Gi) (Clostridium botulinum, UniProt Q60393 1-1297); experiment: FACS, scFv on yeast
T1 sequence: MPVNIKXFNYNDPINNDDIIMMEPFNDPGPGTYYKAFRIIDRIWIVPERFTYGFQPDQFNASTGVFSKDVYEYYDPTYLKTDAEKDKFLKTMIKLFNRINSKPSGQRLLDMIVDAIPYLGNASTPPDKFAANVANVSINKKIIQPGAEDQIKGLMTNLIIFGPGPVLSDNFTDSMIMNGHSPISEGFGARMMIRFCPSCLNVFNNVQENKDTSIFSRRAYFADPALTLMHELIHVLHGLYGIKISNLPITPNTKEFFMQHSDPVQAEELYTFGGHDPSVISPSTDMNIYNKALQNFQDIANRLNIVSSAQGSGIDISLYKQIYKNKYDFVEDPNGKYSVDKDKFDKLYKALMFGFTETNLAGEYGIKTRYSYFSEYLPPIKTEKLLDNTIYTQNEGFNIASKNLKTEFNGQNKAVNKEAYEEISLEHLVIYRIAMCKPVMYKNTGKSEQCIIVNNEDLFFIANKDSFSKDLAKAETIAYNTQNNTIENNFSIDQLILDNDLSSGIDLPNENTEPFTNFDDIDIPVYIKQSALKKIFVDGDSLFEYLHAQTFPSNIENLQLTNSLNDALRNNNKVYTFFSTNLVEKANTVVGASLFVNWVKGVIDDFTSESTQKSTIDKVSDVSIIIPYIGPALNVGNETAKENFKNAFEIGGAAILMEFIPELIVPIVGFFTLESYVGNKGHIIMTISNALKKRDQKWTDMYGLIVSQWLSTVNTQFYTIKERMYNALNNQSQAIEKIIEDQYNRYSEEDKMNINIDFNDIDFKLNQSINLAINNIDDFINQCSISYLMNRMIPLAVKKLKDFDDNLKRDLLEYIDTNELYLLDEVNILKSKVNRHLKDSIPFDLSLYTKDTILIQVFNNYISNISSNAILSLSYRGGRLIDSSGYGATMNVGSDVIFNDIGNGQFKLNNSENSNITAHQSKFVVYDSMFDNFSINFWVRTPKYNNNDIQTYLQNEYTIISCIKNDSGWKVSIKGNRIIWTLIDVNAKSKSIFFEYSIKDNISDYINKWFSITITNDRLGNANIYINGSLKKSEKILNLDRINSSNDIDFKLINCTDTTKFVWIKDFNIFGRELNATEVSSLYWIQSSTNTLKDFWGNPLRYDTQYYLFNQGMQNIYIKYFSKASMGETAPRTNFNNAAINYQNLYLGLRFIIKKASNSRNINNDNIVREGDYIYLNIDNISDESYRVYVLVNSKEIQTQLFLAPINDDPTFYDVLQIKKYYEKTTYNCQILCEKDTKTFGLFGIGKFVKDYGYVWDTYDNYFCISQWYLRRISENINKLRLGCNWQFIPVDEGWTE

[3] = molecular target: inactive BoNT/G (BoNT/Gi) (Clostridium botulinum) (UniProt Q60393); experiment: flow cytometry, scFv on yeast
[4] = molecular target: inactive BoNT/G (BoNT/Gi) (Clostridium botulinum) (UniProt Q60393); experiment: FACS, scFv on yeast
[5] = molecular target: inactive BoNT/G (BoNT/Gi) (Clostridium botulinum) (UniProt Q60393); experiment: flow cytometry, scFv on yeast surface
[6] = molecular target: T2, active BoNT/G holotoxin (Clostridium botulinum, UniProt Q60393 2-1297); experiment: KinExA, IgG
T2 sequence: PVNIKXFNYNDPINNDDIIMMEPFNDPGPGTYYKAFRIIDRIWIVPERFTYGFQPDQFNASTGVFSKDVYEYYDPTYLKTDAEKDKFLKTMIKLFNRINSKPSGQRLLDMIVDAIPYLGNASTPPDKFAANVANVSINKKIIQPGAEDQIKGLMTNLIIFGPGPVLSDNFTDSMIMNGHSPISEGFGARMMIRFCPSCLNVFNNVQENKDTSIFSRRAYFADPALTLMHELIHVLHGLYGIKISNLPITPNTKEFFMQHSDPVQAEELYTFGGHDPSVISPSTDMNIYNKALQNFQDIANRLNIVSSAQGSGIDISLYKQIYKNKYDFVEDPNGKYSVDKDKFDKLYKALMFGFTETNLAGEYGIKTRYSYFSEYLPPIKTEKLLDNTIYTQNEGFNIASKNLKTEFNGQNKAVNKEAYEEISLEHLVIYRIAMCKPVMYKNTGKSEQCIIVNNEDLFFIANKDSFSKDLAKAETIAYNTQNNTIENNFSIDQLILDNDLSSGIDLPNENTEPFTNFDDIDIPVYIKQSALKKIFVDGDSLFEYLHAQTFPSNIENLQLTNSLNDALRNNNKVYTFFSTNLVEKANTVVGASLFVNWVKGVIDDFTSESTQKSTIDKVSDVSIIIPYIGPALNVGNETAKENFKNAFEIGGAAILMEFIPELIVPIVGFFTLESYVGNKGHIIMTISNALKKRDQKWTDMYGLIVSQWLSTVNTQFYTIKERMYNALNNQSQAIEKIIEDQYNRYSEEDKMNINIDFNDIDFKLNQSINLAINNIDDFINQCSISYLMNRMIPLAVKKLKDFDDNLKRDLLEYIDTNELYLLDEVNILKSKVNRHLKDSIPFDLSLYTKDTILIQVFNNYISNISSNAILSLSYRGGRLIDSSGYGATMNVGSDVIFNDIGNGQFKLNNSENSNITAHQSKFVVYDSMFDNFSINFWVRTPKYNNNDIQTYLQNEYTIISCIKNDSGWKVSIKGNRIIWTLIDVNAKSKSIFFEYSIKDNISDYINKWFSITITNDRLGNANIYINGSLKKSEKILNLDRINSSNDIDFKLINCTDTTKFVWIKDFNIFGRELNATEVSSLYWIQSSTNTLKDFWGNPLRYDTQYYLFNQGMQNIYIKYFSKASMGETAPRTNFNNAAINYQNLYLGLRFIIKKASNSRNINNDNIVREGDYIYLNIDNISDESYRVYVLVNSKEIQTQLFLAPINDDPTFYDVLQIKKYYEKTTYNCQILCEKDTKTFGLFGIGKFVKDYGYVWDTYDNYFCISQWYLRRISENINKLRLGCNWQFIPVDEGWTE

[7] = molecular target: T2, active BoNT/G holotoxin; experiment: KinExA, IgG; remark: listed apart in the source
[8] = molecular target: T1, inactive BoNT/G (BoNT/Gi); experiment: titration on yeast-displayed scFv, flow cytometry, fit y = m1 + m2*M0/(m0+m3)
[9] = molecular target: inactive BoNT/G (BoNT/Gi) (Clostridium botulinum) (UniProt Q60393); experiment: scFv on yeast surface

B1: 6G9A2 (scFv, V domains shown)
VH: QVQLVQSGAEVKKPGASVKMSCKASGYTFTSYWMHWVRQAPGQGLEWIGYINPSTGYTEYNQKFKDRATLTADKSTSTAYMELRSLRSDDTAVYYCARGGNYVDYWGQGTTLTVSS
VL: DVVMTQSPSFLSASVGDRVTVTCRASQSIGSWLAWYQQKPGKAPKLLIYAASSLQSGVPSRFSASGSGTDFTLTISSLQPDDFATYFCHRLNSYPLTFGGGTKVEIK
Kd [1]: 6.2 nM

B2: Hu6G11.3 scFv (scFv, V domains shown)
VH: QVQLVQSGAEVAKPGASVKMSCKASGYTFTSYWMHWVRQAPGQGLEWIGYINPSTGYTEYNQKFKDRATLTADKSTSTAYMELSSLRSEDTAVYYCARGYFSFAYWGQGTLVTVSS
VL: EIVLTQSPSTLSASIGDRVTITCRASEGIYHWLAWYQQKPGKAPKLLIYKASSLASGAPSRFSGSGSGTDFSLTISSLQPEDSATYFCQQAHSFPPTFGGGTKVDIKR
Kd [2]: 0.32 nM

B3: 6G9B9 (scFv, V domains shown)
VH: QVQLVQSGAEVKKPGASVKMSCKASGYTFTSYWMHWVRQAPGQGLEWIGYINPSTGYTEYNQKFKDRATLTADKSTSTAYMELRSLRSDDTAVYYCARGGNYVDYWGQGTTLTVSS
VL: DIQMTQSPSTLSASVGERVTITCRASQGISSWLAWYQQKPGKAPKRLIYAVSTLQTGVPSRFSGSGSGTDLTLTINSLQPEDFATYYCQHLNSYPLTFGGGTKVEIK
Kd [1]: 3.78 nM

B4: hu6G9B10 scFv (scFv)
scFv: QVQLVQSGAEVKKPGASVKMSCKASGYTFTSYWMHWVRQAPGQGLEWIGYINPSTGYTEYNQKFKDRATLTADKSTSTAYMELRSLRSDDTAVYYCARGGNYVDYWGQGTTLTVSSVDLKSGGSTSDSGKPGSGEGSSGSARDIQMTQSPSTLSASVGERVTITCRASQDISSWLAWYQQKPGKAPKRLIYAVSTLQTGVPSRFSGSGSGTDLTLTINSLQPEDFATYYCQDLNSYPLTFGGGTKVEVK
Kd [3]: 2.35 nM | fold improvement in affinity over hu6G9 WT [3]: 9 fold

B5: Hu6G9.1 scFv (scFv)
scFv: QVQLVQSGAEVKKPGASVKMSCKASGYTFTSYWMHWVRQAPGQGLEWVGYINPSTGYTEYNQKFKDRATLTADKSTSTAYMELRSLRSDDTAVYYCARGGNYVDYWGQGTTLTVSSVDLKSGGSTSGSGKPGSGEGSSGSARDIQMTQSPSTLSASVGERVTITCRASHGISSWLAWYQQKPGKAPKRLIYAVSTLQTGVPSRFSDSGSGTDLTLTINSLQPEDFATYYCQDLNSYPLSFGGGTKVEIK
Kd [4]: 2.04 nM | fold improvement in affinity over hu6G9 WT [3]: 9 fold | fold improvement over wild type hu6G9 [5]: 9 fold

B6: Hu6G10 IgG (antibody, V domains shown)
VH: QVQLVQSGAEVKKPGATVKISCKASGYSFTGYFMHWVRQAPGKGLEWIGRINPYNGDIIYNQNFKDRATLTVDKSTSTAYMELSSLRSEDTAVYYCASLFGLYYFDYWGQGTTLTVSS
VL: DVVMTQSPSSVSASVGDRVTITCRASQRISNHLNWYQQKPGKAPKRLIYAASSLESGVPSRFSGSGSGTEFTLTISSLQPEDFATYFCLQHNSYPYTFGQGTKVEIKR
fold improvement over 6G10 (IgG KD) [6]: 39 fold | Kd [7]: 0.00836 nM

B7: hu6G7.1A5 (scFv, V domains shown)
VH: QVQLVQSGAEVKKPGASVKVSCKASDYSFTDYNIYWVRQAPGQGLEWIGYIDPYNGGTSYNQKFKGRATLTVDKSISTAYMELSRLRSDDTAVYYCALYGYDPDYIDYWGPGTTLTVSS
VL: DIVLTQSPASMAASPGQRVTITCSASSSVSYLHWFQQKPGQSPKLMIYGTSNLASGVPVRFSGSGSGTSYSLTINPMEAEDTATYYCQQRSSYPYTFGQGTKLEIK
Kd [1]: 4.91 nM

B8: hu6G7.1D6 (scFv, V domains shown)
VH: QVQPVQSGAEVKKPGASVKVSCKASDYSFTDYNIYWVRQAPGQGLEWIGYIDPYNGGTSYNQKYRGRATLTVDKSINTAYMELSRLRSDDTAVYYCALYGYDPDYIEYWGQGTTLTVSS
VL: DIVLTQSPASMAASPGQRVTITCSASSSVSYLHWFQQKPGQSPKLWIYSTSNLASGVPARFSGSGSGTDYTLTINPMEAEDTATYYCQQRSSYPYTFGQGTKLEIK
Kd [1]: 5.03 nM

B9: Hu6G7.1 scFv (scFv, V domains shown)
VH: QVQLVQSGAEVKKPGASVKVSCKASDYSFTDYNIYWVRQTPGQGLEWIGYIDPYNGGTSYNQKFKGRATLTVDKSISTAYMELSRLRSDDTAVYYCALYGYDPDYIDYWGQGTTLTVSS
VL: DIVLTQSPASMAVSPGQRVTITCSASSSVSYLHWFQQKPGQSPKLWIYSTSNLASGVPARFSGSGSGTDYTLTINPMEAEDTATYYCQQRSSYPYTFGQGTKLEIKR
Kd [2]: 3.2 nM | Kd [8]: 3.2 nM

B10: hu6G6.1 IgG (antibody, V domains shown)
VH: QVQLVQSGAEVKKPGASVKLSCKASGFNIKDTYMHWVRQAPGQGLEWIGRIDPENGNTKYDPKFQGRATITAYKSINTAYLELSRLRSDDTAVYYCASGPNYYGTTWFAYWGQGTTVTVSS
VL: EIVLTQSPSTLSASVGDRVTITCRASHGISNYLAWYQQKPGRAPKLLIYKASTLHIGVPSRFSGSGSGTEFALTISSLQPDDFSTYYCQQYNSYLPHTFGQGTRLEIKR
Kd [6]: 0.476 nM | fold improvement over hu6G6 [6]: 18 fold | Kd [7]: 0.47 nM

B11: hu6G6 scFv (scFv)
scFv: QVQLVQSGAEVKKPGASVKLSCKASGFNIKDTYMHWVRQAPGQGLEWIGRIDPANGNTKYDPKFQGRATITADTSINTAYLELSRLRSDDTAVYYCASGPNYYGTTWFAYWGQGTTVTVSSVDLKSGGSTSGSGKPGSGEGSSGSAREIVLTQSPSTLSASVGDRVTITCRASHGISNYLAWYQQKPGRAPKLLIYKASTLHIGVPSRFSGSGSGTEFALTISSLQPDDFSTYYCQQYNSYLPHTFGQGTRLEIK
Kd [4]: 23 nM | Kd [9]: 5 nM | fold improvement over parental 6G6 [9]: > 3 fold | Kd [3]: 23.2 nM
